The assay concerns the target T1, 带有His组氨酸标签蛋白的人ST2重组蛋白 (human, UniProt Q01638 19-328, limits assumed).
T1 construct: Captured on a His-capture BLI sensor; also called His-tagged recombinant human ST2 protein; not shown: His tag
T1 sequence (looked up): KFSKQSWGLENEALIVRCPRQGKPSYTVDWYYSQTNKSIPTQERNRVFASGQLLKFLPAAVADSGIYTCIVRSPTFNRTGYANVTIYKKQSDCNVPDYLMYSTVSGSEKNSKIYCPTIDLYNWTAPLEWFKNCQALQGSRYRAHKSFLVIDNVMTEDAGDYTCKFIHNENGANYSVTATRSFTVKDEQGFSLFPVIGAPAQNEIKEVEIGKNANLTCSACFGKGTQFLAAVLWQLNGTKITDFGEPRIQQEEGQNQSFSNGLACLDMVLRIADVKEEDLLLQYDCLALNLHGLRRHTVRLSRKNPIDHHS
Put plainly: BLI, His-tagged human ST2 captured on HIS sensor, antibody in solution at several concentrations. For orientation: Biolayer interferometry detects binding as a change in optical thickness at a sensor tip.

In general, Kd refers to a measure of binding affinity in units of concentration. A low value points to a tighter complex.

B1: 检测抗体D12(抗人ST2的单克隆抗体) (antibody, V domains shown)
VH: QVTLKESGPGILQPSQTLSLTCSFSGFSLSTSGMGVGWIRQPSGKGLEWLAHIWWDDVKQYNPALKSRLTISKDTSSSQVFLKIASVDTADIATYYCARLGGNWDYFDYWGQGTTLTVSS
VL: DIVLTQSPASLVVSLGQRATISCRASESVDSCGVSFMKWLQQKPGQPPKLLIYVASKVESGVPARFGGSGSGTDFSLNIHPVEEDDFAVYFCQQSRKVPWTFGGGTKLEIK
notes: Mouse hybridoma monoclonal antibody purified from ascites on Protein G; HRP-labelled in one orientation of the sandwich ELISA; coupled to fluorescent microspheres in the strip; also called detection antibody
With B1, binding was put at a Kd of 20 pM.

The values are drawn from CN117024595A (JIANGXI LECHENG XINSHENG BIOTECHNOLOGY RES CO LTD, dated 2023).
